Square brackets hold non-standard residues; d marks the D form. Ends that are not written are not given here. A^u = urea residue with alanine side chain
B1: Compound 43 (peptide)
peptide: HXEGTFTSDVSSYLEGQAAKEFIAWLVKGRG
modifications: A^c at position 2 (N,N'-linked carbomyl / carbamate residue with alanine side chain)
B2: Compound 53 (peptide)
peptide: HSQGTFTSDYSKYLDSXRAQDFVQWLXNT
modifications: A^u at position 17 (urea residue with alanine side chain); Nle (norleucine) at position 27
B3: Compound 58 (peptide)
peptide: HSQGTFTSDYSKYLDSRRAQDFVQWXXNT
modifications: A^u at position 26 (urea residue with alanine side chain); Nle (norleucine) at position 27
B4: Compound 57 (peptide)
peptide: HSQGTFTSDYSKYLDSRRAQDFVQXLXNT
modifications: A^u at position 25 (urea residue with alanine side chain); Nle (norleucine) at position 27
B5: Compound 52 (peptide)
peptide: HSQGTFTSDYSKYLDXRRAQDFVQWLXNT
modifications: A^u at position 16 (urea residue with alanine side chain); Nle (norleucine) at position 27
B6: Compound 36 (peptide)
peptide: HSQGTFTSDYSKYLDSRRAQDFVQWLXNX
modifications: Nle (norleucine) at position 27; A^u at position 29 (urea residue with alanine side chain)
B7: Compound 55 (peptide)
peptide: HSQGTFTSDYSKYLDSRRAQDFXQWLXNT
modifications: A^u at position 23 (urea residue with alanine side chain); Nle (norleucine) at position 27
B8: Compound 51 (peptide)
peptide: HSQGTFTSDYSKYXDSRRAQDFVQWLXNT
modifications: A^u at position 14 (urea residue with alanine side chain); Nle (norleucine) at position 27
B9: Compound 35 (peptide)
peptide: HSQGTFTSDYSKYLDSRRAQDFVQWLXXT
modifications: Nle (norleucine) at position 27; A^u at position 28 (urea residue with alanine side chain)

Experiments:
Experiment in all cases: cell-based or functional assay
[1] = target: T1, mouse GLP-1 receptor endogenously expressed in βTC6 cells (mouse, UniProt O35659 22-463)
T1 sequence (looked up): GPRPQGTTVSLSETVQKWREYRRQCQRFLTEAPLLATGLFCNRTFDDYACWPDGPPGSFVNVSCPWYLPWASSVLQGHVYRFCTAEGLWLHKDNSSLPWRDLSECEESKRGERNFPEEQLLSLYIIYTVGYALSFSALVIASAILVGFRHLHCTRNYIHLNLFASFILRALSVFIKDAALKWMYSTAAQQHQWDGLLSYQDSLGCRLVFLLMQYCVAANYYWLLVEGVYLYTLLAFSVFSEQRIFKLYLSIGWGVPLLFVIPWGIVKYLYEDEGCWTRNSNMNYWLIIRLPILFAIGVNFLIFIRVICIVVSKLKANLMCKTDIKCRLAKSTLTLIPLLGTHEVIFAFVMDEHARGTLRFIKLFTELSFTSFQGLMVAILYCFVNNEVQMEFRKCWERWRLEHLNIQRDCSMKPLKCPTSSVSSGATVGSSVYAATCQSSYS

[2] = target: T1, mouse GLP-1 receptor endogenously …; remark: listed apart in the source
[3] = target: human glucagon receptor expressed in transfected CHO cells (human, UniProt P47871 26-477)

| Binder | EC50, GLP-1 Functional Assay (cAMP production, HTRF) [1] | % bioactivity of reference (reference compound 1) [2] | EC50, Glucagon Functional Assay (cAMP production, HTRF) [3] |
| --- | --- | --- | --- |
| HAEGTFTSDVSSYLEGQAAKEFIAWLXKGRG (A^u at position 27 (urea residue with alanine side chain)) [Compound 7] | 0.22 nM |  |  |
| HAEGTFTSDVSSYLEGQAAKEFIAXLVKGRG (A^u at position 25 (urea residue with alanine side chain)) [Compound 3] | 0.46 nM |  |  |
| HAEGTFTSDVSSYLEGQXAKEFIAWLVKGRG (A^u at position 18 (urea residue with alanine side chain)) [Compound 45] | 0.036 nM | 200% |  |
| XAEGTFTSDVSSYLEGQAAKEFIAWLVKGRG (H^u at position 1 (urea residue with histidine side chain)) [Compound 12] | 280 nM |  |  |
| HAEGTFTSDVSSYLEGQAAKEFIAWXVKGRG (A^u at position 26 (urea residue with alanine side chain)) [Compound 5] | 0.42 nM |  |  |
| HAEGTFTSDVSSYLEGQAAKEFIAWLVKXRG (G^u at position 29 (urea residue with glycine side chain)) [Compound 25] | 0.074 nM |  |  |
| HAEGTFTSDVSSYLEGQAAKEFIXWLVKGRG (A^u at position 24 (urea residue with alanine side chain)) [Compound 2] | 1.5 nM |  |  |
| B1 |  | 9% |  |
| HAEGTFTSDVSSYLEGQAAKEFIAWLVKGRX (G^u at position 31 (urea residue with glycine side chain)) [Compound 27] | 0.081 nM |  |  |
| HAEGTFTSDVSSYLEGQAAKEFIAXLVKGRG (W^u at position 25 (urea residue with tryptophan side chain)) [Compound 4] | 0.26 nM |  |  |
| HAEGTFTSDVSSYLEGQAAKEFIAWLVXGRG (K^u at position 28 (urea residue with lysine side chain)) [Compound 46] |  | 157% |  |
| HAEGTFTSDVSSYXEGQAAKEFIAWLVKGRG (Y^u at position 14 (urea residue with tyrosine side chain)) [Compound 44] | 0.048 nM | 150% |  |
| H[A^u]EGTFTSDL[A^u]KQLEEEAVRLFIEWLKNGGPSSGAPPSKKKKKK [Compound 73] | 0.34 nM |  |  |
| B2 |  |  | 0.67 nM |
| B3 |  |  | 35 nM |
| B4 |  |  | 22 nM |
| B5 |  |  | 34 nM |
| B6 |  |  | 0.026 nM |
| B7 |  |  | 34 nM |
| B8 |  |  | 68 nM |
| B9 |  |  | 0.44 nM |
